The results in this text go back to paper PMC5072841, “Insights into HIV-1 proviral transcription from integrative structure and dynamics of the Tat:AFF4:P-TEFb:TAR complex” (eLife, 2016).

In series [1] the test system is HIV-1 Tat;Cyclin T1 (CycT1, P-TEFb subunit);CDK9 (P-TEFb subunit);AFF4 2-73 WT (HIV-1;human;human;human). Briefly: EMSA. Particulars: EMSA: 100 pM 32P-TAR, 0.009-190 nM Tat:P-TEFb, 5-fold molar excess AFF4 over P-TEFb; buffer and temperature as in Schulze-Gahmen 2014 (not given). SHAPE: RNA ….
The subject of series [2] is HIV-1 Tat;Cyclin T1 (CycT1, P-TEFb subunit);CDK9 (P-TEFb subunit) (HIV-1;human;human). Briefly: EMSA. The note with it: EMSA: 100 pM 32P-TAR, 0.009-190 nM Tat:P-TEFb, 5-fold molar excess AFF4 over P-TEFb; buffer and temperature as in Schulze-Gahmen 2014 (not given). SHAPE: RNA ….
The subject of series [3] is HIV-1 Tat;Cyclin T1 (CycT1, P-TEFb subunit);CDK9 (P-TEFb subunit);AFF4 2-73 E61A (HIV-1;human;human;human). As to the kind of experiment: EMSA. The note with it: EMSA: 100 pM 32P-TAR, 0.009-190 nM Tat:P-TEFb, 5-fold molar excess AFF4 over P-TEFb; buffer and temperature as in Schulze-Gahmen 2014 (not given). SHAPE: RNA …. Background: In EMSA bound probe runs differently from free probe, usually more slowly.

Series [4] relates to HIV-1 Tat;Cyclin T1 (CycT1, P-TEFb subunit);CDK9 (P-TEFb subunit);AFF4 2-73 K63A (HIV-1;human;human;human). As to the kind of experiment: EMSA. Particulars: EMSA: 100 pM 32P-TAR, 0.009-190 nM Tat:P-TEFb, 5-fold molar excess AFF4 over P-TEFb; buffer and temperature as in Schulze-Gahmen 2014 (not given). SHAPE: RNA ….
The test system of series [5] is HIV-1 Tat;Cyclin T1 (CycT1, P-TEFb subunit);CDK9 (P-TEFb subunit);AFF4 2-73 WT (HIV-1;human;human;human). Briefly: EMSA. The note with it: EMSA: 100 pM 32P-TAR, 0.009-190 nM Tat:P-TEFb, 5-fold molar excess AFF4 over P-TEFb; buffer and temperature as in Schulze-Gahmen 2014 (not given). SHAPE: RNA …. The source holds these as a separate data set.
A further series has as its target T1, human cyclin T1 1-264 (human, UniProt O60563 1-264).
T1 construct: human cyclin T1, residues 1-264; also called CycT1; CycT; source: High 5 insect cells, recombinant baculovirus, co-expressed with CDK9 and Tat, purified
Briefly: crystal structure; Tat_(1-57):AFF4_(32-67):P-TEFb combined with TAR21 RNA (nucleotides 21-41) at 1:1.3; sitting drops at 18°C; 5.9 Å; molecular replacement with PDB 4OGR. Particulars: both partners purified.

T1 sequence (O60563 1-264): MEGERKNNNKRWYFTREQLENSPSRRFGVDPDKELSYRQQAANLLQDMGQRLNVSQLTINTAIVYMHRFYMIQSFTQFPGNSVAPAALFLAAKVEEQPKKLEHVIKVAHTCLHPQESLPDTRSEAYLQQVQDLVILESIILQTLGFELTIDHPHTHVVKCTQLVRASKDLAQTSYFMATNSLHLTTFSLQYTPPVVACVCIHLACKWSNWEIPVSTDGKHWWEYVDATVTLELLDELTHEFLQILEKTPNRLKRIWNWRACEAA

For orientation: Kd means the equilibrium constant for the complex coming apart. A lower Kd goes with tighter binding. In the case of HIV-1 TAR 18-44 WT, the Kd was 0.2 nM in series [1], 19 nM in series [2] and 0.26 nM in series [5]. The results for the binding signal (fold reduction in affinity vs WT AFF4) in series [3] and in series [4] were 3 and 2, respectively.

B1: AFF4 peptide 32-67 (peptide, UniProt Q9UHB7 32-67, looked up)
chain: Ac-SPLFAEPYKVTSKEDKLSSRIQSMLGNYDEMKDFIG-NH2
notes: human AFF4, residues 32-67; also called AFF4_(32-67); synthetic AFF4 peptide (32-67); source: synthetic peptide (University of Utah DNA/Peptide Facility)
In the case of B1, in the series with human cyclin T1 1-264, the binding result was “binds”.
